According to paper PMC11610291:

Tests used:
ACKR4-HA (human) [1] = biological target: T1, ACKR4-HA (human) (UniProt Q9NPB9)
T1 sequence: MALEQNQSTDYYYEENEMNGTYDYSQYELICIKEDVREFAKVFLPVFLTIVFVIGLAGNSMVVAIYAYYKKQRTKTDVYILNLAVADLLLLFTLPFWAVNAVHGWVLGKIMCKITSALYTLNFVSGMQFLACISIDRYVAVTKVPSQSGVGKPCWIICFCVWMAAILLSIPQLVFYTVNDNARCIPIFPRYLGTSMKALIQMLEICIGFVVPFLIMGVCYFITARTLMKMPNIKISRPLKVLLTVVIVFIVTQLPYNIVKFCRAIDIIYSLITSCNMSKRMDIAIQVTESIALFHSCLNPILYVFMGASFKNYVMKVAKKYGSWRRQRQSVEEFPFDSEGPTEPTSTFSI

ACKR4-HA (human) [2] = biological target: T1, ACKR4-HA (human); remark: listed apart in the source

smBiT-βarrestin2, sequence (P32121 whole entry): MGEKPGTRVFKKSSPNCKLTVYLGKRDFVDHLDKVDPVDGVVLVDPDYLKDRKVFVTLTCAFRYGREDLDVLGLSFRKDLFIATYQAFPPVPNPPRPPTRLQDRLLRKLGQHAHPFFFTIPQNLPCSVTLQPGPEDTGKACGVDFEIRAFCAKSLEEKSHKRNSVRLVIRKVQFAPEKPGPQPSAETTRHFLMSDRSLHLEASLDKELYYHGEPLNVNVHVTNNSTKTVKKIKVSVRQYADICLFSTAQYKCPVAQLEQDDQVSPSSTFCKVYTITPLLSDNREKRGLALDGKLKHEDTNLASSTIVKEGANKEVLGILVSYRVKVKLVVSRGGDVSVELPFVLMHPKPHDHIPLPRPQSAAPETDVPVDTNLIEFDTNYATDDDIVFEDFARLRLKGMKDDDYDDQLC
smBiT-βarrestin1, sequence (P49407 whole entry): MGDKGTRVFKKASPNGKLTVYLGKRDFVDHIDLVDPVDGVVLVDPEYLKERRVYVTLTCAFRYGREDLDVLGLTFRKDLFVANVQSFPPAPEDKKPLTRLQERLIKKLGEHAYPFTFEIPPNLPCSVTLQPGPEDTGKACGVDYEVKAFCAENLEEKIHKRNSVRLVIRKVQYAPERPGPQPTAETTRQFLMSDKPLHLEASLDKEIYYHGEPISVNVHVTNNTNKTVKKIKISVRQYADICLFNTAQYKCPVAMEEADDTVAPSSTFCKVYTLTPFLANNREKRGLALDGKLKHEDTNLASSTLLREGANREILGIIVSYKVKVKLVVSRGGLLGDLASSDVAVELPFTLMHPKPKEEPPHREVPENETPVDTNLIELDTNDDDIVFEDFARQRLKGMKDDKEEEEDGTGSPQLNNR

Row | bystander NanoBiT (smBiT-βarrestin2 with lgBiT-CAAX) in HEK293: CCL19-driven recruitment to the plasma membrane, as compared to native ACKR4 (% of native ACKR4) (ACKR4-HA (human) [1]) | bystander NanoBiT (smBiT-βarrestin2 with lgBiT-CAAX) in HEK293: pre-association with the plasma membrane in the absence of CCL19, as compared to cells expressing native ACKR4 (times higher than native ACKR4) (ACKR4-HA (human) [2]) | bystander NanoBiT (smBiT-βarrestin1 with lgBiT-CAAX) in HEK293: CCL19-driven recruitment to the plasma membrane, as compared to native ACKR4 (% of native ACKR4) (ACKR4-HA (human) [1]) | bystander NanoBiT (smBiT-βarrestin1 with lgBiT-CAAX) in HEK293: pre-association with the plasma membrane in the absence of CCL19, as compared to cells expressing native ACKR4 (times higher than native ACKR4) (ACKR4-HA (human) [2]) | Substance
1 | 27 | 3.3 | – | – | smBiT-βarrestin2 (from UniProt P32121 1-409) (natural protein)
2 | – | – | 42 | 2.9 | smBiT-βarrestin1 (from UniProt P49407 1-418) (natural protein)
